Assay results as given in patent US20090192084A1.
Values belong to the substance of their own block, whether it stands above or below them.

Tests used:
[1] = target: BTB/POZ domain-containing protein 2. BTBD2 (human) (UniProt Q9BX70); experiment: Flag co-IP, MudPIT MS, DMSO
Cullin 1 (human) = Cullin 1 (human) (UniProt Q13616); experiment: Flag co-IP, MudPIT MS, DMSO
[2] = target: Kelch repeat and BTB domain-containing protein 7, KBTB7 (human) (UniProt Q8WVZ9); experiment: Flag co-IP, MudPIT MS, DMSO
[3] = target: RING finger protein 12. RLIM (human) (UniProt Q9NVW2); experiment: Flag co-IP, MudPIT MS, DMSO
[4] = target: Ubiquitin conjugation factor E4 B, UBE4B (Ufd2ortholog) (human) (UniProt O95155); experiment: Flag co-IP, MudPIT MS, DMSO
Chain of Ubiquitin conjugation factor E4 B, UBE4B (Ufd2ortholog) (human) (O95155 whole entry): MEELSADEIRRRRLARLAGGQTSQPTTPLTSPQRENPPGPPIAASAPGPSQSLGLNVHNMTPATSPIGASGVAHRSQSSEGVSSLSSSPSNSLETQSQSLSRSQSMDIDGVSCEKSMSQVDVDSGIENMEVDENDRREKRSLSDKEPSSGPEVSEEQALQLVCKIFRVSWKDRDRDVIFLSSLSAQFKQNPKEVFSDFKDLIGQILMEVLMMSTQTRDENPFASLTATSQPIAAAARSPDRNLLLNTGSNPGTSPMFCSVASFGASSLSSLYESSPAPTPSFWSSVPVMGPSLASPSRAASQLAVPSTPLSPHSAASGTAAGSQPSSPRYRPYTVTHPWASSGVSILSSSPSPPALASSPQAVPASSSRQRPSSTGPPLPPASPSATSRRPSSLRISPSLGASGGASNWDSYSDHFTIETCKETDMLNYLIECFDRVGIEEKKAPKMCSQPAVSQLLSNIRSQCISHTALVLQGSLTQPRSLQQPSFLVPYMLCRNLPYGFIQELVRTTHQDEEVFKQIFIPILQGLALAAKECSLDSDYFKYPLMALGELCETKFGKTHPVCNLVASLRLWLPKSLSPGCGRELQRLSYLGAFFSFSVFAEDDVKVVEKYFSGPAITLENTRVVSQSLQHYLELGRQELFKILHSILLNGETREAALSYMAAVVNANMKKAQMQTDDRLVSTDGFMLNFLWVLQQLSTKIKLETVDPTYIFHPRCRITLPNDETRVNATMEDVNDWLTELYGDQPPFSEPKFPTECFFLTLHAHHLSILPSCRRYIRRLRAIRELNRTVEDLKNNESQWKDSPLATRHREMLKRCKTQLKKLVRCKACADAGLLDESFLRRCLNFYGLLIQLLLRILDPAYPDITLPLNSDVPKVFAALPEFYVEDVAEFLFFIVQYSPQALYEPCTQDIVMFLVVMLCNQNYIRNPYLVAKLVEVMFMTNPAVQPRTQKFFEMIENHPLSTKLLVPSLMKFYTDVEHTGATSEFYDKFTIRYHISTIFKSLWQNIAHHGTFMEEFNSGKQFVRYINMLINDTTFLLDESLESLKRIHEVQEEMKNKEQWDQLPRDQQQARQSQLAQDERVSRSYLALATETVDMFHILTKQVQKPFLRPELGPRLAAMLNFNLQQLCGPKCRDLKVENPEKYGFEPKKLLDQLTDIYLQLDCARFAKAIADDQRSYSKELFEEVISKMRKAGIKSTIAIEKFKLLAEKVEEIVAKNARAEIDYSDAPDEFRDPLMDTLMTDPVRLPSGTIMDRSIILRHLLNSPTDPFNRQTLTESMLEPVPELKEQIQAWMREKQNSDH

VCIP135 (human) = target: T1, VCIP135 (human) (UniProt Q96JH7); experiment: Flag co-IP, 293 cells, MudPIT MS
T1 sequence (looked up): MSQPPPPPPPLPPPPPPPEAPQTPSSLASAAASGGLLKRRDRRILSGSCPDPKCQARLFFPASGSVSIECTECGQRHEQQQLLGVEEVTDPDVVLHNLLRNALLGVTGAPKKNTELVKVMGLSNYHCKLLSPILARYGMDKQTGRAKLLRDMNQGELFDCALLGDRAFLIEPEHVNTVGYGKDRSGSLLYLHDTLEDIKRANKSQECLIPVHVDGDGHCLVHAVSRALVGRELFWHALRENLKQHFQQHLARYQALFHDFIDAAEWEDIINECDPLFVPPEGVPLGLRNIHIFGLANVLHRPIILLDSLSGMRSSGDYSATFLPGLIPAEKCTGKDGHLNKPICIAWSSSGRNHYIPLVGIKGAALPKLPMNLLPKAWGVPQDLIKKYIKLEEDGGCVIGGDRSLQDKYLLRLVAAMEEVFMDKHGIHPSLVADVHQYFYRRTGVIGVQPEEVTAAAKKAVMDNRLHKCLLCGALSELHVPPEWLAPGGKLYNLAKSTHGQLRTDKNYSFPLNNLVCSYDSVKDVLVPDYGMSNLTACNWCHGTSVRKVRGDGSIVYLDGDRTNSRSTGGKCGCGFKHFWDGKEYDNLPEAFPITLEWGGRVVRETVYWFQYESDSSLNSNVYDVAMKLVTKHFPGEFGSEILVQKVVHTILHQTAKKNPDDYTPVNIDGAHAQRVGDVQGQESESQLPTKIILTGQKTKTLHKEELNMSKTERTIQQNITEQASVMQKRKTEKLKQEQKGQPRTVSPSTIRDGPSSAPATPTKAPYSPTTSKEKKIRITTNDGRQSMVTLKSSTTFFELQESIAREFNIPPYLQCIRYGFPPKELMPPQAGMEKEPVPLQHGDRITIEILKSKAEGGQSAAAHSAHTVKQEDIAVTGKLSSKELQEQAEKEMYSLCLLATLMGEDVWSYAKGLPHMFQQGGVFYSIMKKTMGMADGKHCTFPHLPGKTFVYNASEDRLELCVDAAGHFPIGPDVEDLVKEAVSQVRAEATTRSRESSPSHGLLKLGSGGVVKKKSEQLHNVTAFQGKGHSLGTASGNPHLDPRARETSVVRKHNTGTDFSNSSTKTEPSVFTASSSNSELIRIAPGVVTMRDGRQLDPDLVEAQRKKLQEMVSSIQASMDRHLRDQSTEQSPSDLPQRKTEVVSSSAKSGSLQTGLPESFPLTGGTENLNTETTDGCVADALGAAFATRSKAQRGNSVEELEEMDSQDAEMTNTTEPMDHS

[5] = target: Bromodomain and WD-repeat domain-containing protein 1. WDR9 (human) (UniProt Q9NSI6); experiment: Flag co-IP, MudPIT MS, DMSO
[6] = target: Bromodomain and WD-repeat domain-containing protein 2, WDR 1 I (human) (UniProt Q9BZH6); experiment: Flag co-IP, MudPIT MS, DMSO
Chain of Bromodomain and WD-repeat domain-containing protein 2, WDR 1 I (human) (Q9BZH6 whole entry, the tested form may be a part): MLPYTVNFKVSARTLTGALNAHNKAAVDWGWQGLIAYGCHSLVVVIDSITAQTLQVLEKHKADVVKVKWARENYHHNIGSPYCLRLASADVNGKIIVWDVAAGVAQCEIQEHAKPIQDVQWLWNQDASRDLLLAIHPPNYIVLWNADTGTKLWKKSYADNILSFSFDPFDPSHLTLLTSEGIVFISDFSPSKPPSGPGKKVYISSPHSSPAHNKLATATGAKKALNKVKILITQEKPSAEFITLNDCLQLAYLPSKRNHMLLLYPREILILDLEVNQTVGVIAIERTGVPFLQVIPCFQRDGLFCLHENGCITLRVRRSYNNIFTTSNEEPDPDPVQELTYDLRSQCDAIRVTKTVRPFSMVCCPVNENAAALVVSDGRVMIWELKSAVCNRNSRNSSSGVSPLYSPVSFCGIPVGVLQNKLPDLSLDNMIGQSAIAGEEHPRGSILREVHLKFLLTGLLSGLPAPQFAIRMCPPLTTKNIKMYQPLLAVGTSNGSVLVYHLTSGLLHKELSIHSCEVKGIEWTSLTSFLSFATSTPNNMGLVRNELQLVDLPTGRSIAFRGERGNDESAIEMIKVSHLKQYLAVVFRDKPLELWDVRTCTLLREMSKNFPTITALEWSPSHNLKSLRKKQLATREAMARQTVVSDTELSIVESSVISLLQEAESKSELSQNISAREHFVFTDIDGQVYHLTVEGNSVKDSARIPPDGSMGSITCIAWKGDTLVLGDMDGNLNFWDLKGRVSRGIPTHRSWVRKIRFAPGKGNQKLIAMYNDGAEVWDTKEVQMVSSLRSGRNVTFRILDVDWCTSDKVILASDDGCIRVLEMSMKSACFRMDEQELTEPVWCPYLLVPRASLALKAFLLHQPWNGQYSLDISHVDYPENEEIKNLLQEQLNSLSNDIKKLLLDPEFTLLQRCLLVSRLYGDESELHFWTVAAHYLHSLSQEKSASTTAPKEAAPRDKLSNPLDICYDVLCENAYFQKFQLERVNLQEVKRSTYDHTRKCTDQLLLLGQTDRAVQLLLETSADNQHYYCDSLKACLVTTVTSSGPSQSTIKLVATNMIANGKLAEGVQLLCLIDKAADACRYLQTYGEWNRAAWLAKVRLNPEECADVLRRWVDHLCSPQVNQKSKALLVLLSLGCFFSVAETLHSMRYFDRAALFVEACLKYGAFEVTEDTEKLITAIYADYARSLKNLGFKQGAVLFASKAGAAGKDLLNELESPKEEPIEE

[7] = target: Bromodomain and WD-repeat domain-containing protein 3, BRWD3 (human) (UniProt Q6RI45); experiment: Flag co-IP, MudPIT MS, DMSO
Chain of Bromodomain and WD-repeat domain-containing protein 3, BRWD3 (human) (Q6RI45 whole entry, the tested form may be a part): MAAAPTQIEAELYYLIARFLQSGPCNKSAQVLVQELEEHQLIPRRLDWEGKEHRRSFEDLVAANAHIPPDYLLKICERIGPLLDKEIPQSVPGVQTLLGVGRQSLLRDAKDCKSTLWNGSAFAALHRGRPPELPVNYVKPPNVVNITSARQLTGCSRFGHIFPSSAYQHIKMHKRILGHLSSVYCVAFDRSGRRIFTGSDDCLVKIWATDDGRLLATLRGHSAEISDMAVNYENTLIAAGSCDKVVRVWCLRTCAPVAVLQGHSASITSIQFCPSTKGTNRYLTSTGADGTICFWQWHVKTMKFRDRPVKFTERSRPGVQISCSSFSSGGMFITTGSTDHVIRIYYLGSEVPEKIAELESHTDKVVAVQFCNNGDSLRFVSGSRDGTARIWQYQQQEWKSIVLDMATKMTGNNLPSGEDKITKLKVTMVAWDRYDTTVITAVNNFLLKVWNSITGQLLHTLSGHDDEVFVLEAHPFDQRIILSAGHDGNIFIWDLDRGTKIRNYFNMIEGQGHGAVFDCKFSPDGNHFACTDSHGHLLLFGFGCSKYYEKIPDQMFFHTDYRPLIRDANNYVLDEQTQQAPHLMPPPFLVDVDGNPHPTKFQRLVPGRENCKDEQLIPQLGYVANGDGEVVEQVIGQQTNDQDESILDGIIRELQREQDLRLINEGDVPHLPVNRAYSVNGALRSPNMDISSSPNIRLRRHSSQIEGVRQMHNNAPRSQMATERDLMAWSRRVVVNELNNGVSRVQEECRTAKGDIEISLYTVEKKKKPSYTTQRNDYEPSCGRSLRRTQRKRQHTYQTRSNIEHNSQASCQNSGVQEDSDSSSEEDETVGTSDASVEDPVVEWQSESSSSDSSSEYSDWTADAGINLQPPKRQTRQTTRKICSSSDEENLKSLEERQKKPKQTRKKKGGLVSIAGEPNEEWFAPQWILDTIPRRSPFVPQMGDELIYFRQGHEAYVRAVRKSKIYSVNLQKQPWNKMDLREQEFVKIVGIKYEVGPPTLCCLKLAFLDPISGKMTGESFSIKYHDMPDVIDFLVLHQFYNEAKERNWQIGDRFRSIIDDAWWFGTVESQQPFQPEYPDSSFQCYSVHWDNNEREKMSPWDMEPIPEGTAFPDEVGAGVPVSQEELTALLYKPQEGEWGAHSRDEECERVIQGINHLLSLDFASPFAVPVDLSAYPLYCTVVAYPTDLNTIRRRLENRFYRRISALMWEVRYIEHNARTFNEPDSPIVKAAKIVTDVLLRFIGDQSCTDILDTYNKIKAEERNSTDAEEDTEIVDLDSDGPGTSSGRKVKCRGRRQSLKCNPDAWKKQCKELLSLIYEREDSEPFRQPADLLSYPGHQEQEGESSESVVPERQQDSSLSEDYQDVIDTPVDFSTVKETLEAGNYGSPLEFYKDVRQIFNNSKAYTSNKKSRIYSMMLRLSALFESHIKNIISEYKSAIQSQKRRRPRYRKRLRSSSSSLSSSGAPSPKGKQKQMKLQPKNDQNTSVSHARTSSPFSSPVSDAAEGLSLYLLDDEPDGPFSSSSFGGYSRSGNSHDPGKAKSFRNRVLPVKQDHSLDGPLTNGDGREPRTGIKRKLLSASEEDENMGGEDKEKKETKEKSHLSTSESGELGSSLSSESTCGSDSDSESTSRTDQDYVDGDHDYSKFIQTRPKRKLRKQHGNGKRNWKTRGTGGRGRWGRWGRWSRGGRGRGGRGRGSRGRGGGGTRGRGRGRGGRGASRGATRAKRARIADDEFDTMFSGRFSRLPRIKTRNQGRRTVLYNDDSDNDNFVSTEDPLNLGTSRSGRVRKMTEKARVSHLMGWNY

Cullin 4A (human) = Cullin 4A (human) (UniProt Q13619); experiment: Flag co-IP, MudPIT MS, DMSO
Cullin 4B (human) = Cullin 4B (human) (UniProt Q13620); experiment: Flag co-IP, MudPIT MS, DMSO
Elongin B (human) = Elongin B (human) (UniProt Q15370); experiment: Flag co-IP, MudPIT MS, DMSO
Chain of Elongin B (human) (Q15370 other isoform, or with tags, fused parts or gaps limits assumed): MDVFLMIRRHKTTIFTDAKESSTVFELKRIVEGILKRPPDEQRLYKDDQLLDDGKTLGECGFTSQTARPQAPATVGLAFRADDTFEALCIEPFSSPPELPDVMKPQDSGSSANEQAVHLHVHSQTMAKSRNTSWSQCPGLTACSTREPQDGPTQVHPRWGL

[8] = target: Kelch domain-containing protein 2, KLDC2 (human) (UniProt Q9Y2U9); experiment: Flag co-IP, MudPIT MS, DMSO
Chain of Kelch domain-containing protein 2, KLDC2 (human) (Q9Y2U9 whole entry, the tested form may be a part): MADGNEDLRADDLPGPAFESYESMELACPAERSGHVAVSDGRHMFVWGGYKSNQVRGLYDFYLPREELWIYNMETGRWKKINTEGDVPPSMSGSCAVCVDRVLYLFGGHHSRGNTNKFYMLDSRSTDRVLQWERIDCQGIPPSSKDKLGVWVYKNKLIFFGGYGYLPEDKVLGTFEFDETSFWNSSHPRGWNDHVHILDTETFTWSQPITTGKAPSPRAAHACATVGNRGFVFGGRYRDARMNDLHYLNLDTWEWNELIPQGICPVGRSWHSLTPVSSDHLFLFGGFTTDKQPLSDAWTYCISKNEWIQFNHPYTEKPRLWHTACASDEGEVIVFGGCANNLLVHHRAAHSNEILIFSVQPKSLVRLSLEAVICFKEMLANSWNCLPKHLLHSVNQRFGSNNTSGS

SKP1 (human) = SKP1 (human) (UniProt P63208); experiment: Flag co-IP, MudPIT MS, DMSO
Chain of SKP1 (human) (P63208 2-163 limits assumed): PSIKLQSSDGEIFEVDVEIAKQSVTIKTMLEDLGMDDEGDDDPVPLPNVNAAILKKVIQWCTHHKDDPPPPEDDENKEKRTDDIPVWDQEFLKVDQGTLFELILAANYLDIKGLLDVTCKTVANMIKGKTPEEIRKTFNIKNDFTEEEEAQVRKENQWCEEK

endogenous NPL4 (human) = endogenous NPL4 (human) (UniProt Q8TAT6); experiment: Flag co-IP, 293 cells, MudPIT MS
Elongin C (human) = Elongin C (human) (UniProt Q15369); experiment: Flag co-IP, MudPIT MS, DMSO
[9] = target: Galectin-3 binding protein. LG3BP (human) (UniProt Q08380); experiment: Flag co-IP, MudPIT MS, DMSO
[10] = target: WD repeat protein Anti homolog. WDR68 (human) (UniProt P61962); experiment: Flag co-IP, MudPIT MS, DMSO

- abundance factor (AF) [1]: 2.9
- sequence count [1]: 2
- spectrum count [1]: 2
- abundance factor (AF) (Cullin 1 (human)): 6.5
- sequence count (Cullin 1 (human)): 5
- spectrum count (Cullin 1 (human)): 7
- abundance factor (AF) [2]: 2.1
- sequence count [2]: 2
- spectrum count [2]: 2
- abundance factor (AF) [3]: 3.5
- sequence count [3]: 2
- spectrum count [3]: 3
- abundance factor (AF) [4]: 1.1
- sequence count [4]: 2
- spectrum count [4]: 2
- sequence count (VCIP135 (human)): 2
- sequence coverage (VCIP135 (human)): 2.9%
- spectrum count (VCIP135 (human)): 2
Substance: Flag-SAKS1 (from UniProt Q04323 1-297)

- abundance factor (AF) [5]: 2.2
- sequence count [5]: 3
- spectrum count [5]: 4
- abundance factor (AF) [6]: 2.1
- sequence count [6]: 2
- spectrum count [6]: 2
- abundance factor (AF) [7]: 1.4
- sequence count [7]: 2
- spectrum count [7]: 2
- abundance factor (AF) (Cullin 4A (human)): 9.8
- sequence count (Cullin 4A (human)): 5
- spectrum count (Cullin 4A (human)): 6
- sequence count (Cullin 4B (human)): 7
- spectrum count (Cullin 4B (human)): 9
- abundance factor (AF) (Elongin B (human)): 16
- sequence count (Elongin B (human)): 2
- spectrum count (Elongin B (human)): 2
- abundance factor (AF) [8]: 9.3
- sequence count [8]: 2
- spectrum count [8]: 3
- abundance factor (AF) (SKP1 (human)): 30.7
- sequence count (SKP1 (human)): 3
- spectrum count (SKP1 (human)): 4
- sequence count (endogenous NPL4 (human)): 14
- sequence coverage (endogenous NPL4 (human)): 24.5%
- spectrum count (endogenous NPL4 (human)): 33
Substance: Flag-UBXD7 (from UniProt O94888 1-489)

- abundance factor (AF) (Elongin C (human)): 7
- sequence count (Elongin C (human)): 2
- spectrum count (Elongin C (human)): 5
- abundance factor (AF) [9]: 0.8
- spectrum count [9]: 3
- abundance factor (AF) [10]: 0.9
- sequence count [10]: 2
- spectrum count [10]: 2
- sequence count (VCIP135 (human)): 11
- sequence coverage (VCIP135 (human)): 14.1%
- spectrum count (VCIP135 (human)): 12
- sequence count (endogenous NPL4 (human)): 11
- sequence coverage (endogenous NPL4 (human)): 20.6%
- spectrum count (endogenous NPL4 (human)): 209
Substance: Flag-UBXD8 (from UniProt Q96CS3 1-445)
